The values below come from patent US7999089, “RNA aptamers and the uses thereof” (Industry-Academic Cooperation Foundation, Dankook University).

As a reminder, the Kd is the free concentration of one partner at which half of the binding sites on the other are occupied at equilibrium, for simple one-to-one binding. Read a low Kd as tighter binding.

The target of series [1] is T1, TCF-1 C200 (HMG domain) (Mus musculus, UniProt Q00417 Q00417:188-388). Put plainly: competition; excess unlabelled RNA did not compete with #10. Particulars: tags: GST fusion, pGEX 4T-1.
T1 sequence (Q00417 188-388, one chain of several): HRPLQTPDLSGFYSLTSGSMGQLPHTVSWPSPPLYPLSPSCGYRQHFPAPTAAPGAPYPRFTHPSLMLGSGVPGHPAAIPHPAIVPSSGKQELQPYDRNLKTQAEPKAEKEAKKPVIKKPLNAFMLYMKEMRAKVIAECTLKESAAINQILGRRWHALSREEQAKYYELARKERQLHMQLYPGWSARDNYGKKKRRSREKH
Series [2] concerns the target T1, TCF-1 C200 (HMG domain). Put plainly: EMSA. Particulars: tags: GST fusion, pGEX 4T-1; label: 32P 5'-end.
Series [3] addresses T1, TCF-1 C200 (HMG domain). Put plainly: competition; excess unlabelled RNA did not compete with #10; text partly contradictory. Particulars: tags: GST fusion, pGEX 4T-1.
For the next series, the target named is TCF-1 (full length) (Mus musculus, UniProt Q00417 Q00417:5-388). Put plainly: EMSA; specificity control. Particulars: tags: GST fusion, pGEX 4T-1; label: 32P (radiolabelled). In general terms: In EMSA bound probe runs differently from free probe, usually more slowly.
Sequence of TCF-1 (full length) (Q00417 5-388, one chain of several): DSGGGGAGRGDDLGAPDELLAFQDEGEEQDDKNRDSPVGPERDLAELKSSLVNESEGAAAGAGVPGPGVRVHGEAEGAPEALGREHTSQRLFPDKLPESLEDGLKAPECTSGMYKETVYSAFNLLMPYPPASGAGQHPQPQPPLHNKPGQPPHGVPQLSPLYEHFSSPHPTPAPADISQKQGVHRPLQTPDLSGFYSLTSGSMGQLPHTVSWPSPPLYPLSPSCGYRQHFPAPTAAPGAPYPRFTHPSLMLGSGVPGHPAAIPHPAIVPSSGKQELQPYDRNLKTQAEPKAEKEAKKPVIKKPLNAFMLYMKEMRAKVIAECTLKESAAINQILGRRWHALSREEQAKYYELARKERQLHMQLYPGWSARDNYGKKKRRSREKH
The target in a further series is HuR (UniProt Q15717 Q15717:1-326). Put plainly: EMSA; specificity control. To be noted: label: 32P (radiolabelled).
Sequence of HuR (Q15717 whole entry, one chain of several): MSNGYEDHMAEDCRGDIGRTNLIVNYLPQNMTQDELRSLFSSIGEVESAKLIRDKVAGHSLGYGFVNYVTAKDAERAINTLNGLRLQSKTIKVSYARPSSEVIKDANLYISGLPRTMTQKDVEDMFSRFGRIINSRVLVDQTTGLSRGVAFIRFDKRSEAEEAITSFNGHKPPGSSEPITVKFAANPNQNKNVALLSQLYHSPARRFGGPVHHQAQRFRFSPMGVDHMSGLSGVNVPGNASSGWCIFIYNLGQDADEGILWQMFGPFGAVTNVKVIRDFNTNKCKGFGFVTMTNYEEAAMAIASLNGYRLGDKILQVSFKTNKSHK
Another series concerns the target GST (UniProt P08515 P08515:1-218). Put plainly: EMSA; specificity control. To be noted: chain copies: 2; label: 32P (radiolabelled).
Series [4] concerns the target GST-β-catenin, full length (UniProt P35222 P35222:1-781). Put plainly: EMSA; stated as binding affinity for full length β-catenin. To be noted: tags: GST fusion, E. coli; label: 32P (radiolabelled). As for the experimental part:
After 8 cycles of SELEX selection, the selected sequences were digested with EcoRI and BamHI, followed by cloning into pUC19 to prepare pUC19-aptamer. To test for RNA binding, the RNA was radiolabeled as described previously (Kim & Jeong, Biochem. Biophys. Res. Commun 320:1181-1186, 2004), incubated with GST-β catenin and assayed by GST pull-down (Kim & Jeong, Biochem. Biophys. Res. Commun 320:1181-1186, 2004) or RNA-EMSA (RNA-Electrophoretic Mobility-Shift Assay) (Kim & Jeong, Biochem. Biophys. Res. Commun 320:1181-1186, 2004).

Sequence of GST-β-catenin, full length (P35222 whole entry, the tested form may be a part, one chain of several): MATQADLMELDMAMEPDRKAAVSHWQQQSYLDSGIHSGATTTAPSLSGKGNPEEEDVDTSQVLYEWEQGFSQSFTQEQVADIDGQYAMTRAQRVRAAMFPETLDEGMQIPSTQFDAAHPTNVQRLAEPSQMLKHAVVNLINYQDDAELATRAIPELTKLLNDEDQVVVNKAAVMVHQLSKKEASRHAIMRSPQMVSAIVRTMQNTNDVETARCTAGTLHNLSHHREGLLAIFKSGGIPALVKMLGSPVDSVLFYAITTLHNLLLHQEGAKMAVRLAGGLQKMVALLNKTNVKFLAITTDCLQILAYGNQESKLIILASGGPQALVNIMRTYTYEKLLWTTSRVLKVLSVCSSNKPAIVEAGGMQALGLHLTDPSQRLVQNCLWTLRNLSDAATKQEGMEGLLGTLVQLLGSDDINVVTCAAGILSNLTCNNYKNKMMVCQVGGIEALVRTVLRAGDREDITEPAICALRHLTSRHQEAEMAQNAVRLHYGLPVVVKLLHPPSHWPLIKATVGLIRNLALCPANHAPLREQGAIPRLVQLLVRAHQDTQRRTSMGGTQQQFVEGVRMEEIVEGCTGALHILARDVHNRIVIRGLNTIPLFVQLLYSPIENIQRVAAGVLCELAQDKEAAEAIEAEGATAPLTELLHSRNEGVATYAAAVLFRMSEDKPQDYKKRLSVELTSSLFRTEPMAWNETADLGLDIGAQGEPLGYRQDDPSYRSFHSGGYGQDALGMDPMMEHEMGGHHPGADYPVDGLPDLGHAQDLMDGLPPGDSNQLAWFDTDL
Sequence of GST (P08515 whole entry, the tested form may be a part, one chain of several): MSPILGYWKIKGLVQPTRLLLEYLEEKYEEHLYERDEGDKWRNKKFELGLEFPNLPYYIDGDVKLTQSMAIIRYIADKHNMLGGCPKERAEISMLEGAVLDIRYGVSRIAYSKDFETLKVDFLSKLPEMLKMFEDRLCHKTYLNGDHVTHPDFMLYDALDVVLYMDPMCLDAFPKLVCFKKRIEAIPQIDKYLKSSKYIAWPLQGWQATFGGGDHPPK

B1: RNA #9 (ssRNA)
RNA: UGCUGACAAUUCUCGUGCCUCUCCAUGGUCUGCGGCUGAGAAGGUUCGCCAAGUUGUGGGCCGGGGUGC
In the case of B1, the binding result with TCF-1 C200 (HMG domain) [1] is given as “no binding”.

B2: TRE (TCF responsive element) (dsDNA)
DNA 1: GGTAAGATCAAAGGG
DNA 2: CCCTTTGATCTTACC
On to B2, for which the binding result with TCF-1 C200 (HMG domain) [2] was “binds”.

B3: RNA #20 (ssRNA)
RNA: UUCCCGCGGUGGAAAGCGUUGGGUAGCGGCUCCGAUGGAGAGUGGUGCGCCUUGCCUGCUGGCCUUG
As to B3, the binding result in the series with TCF-1 C200 (HMG domain) [3] was “no binding”.

B4: β-catenin RNA aptamer (ssRNA)
RNA: GGACGCGUGGUACCAGGCCGAUCUAUGGACGCUAUAGGCACACCGGAUACUUUAACGAUUGGCUAAGCUUCCGCGGGGAUC
Consider B4, for which the binding result in the series with TCF-1 (full length), in the series with HuR and with GST was “no binding” throughout. In series [4], this molecule registered a Kd of 5 nM.
